Measured values from article PMC11008601, “Motor properties of Myosin 5c are modulated by tropomyosin isoforms and inhibited by pentabromopseudilin” (Frontiers in Physiology, 2024).

Tests used:
Myo5c–HMM = target: T1, Myo5c–HMM (Homo sapiens, UniProt Q9NQX4); assay: NADH-coupled steady-state actin-activated ATPase assay, dose-response fit; format: biochemical
T1 construct: heavy meromyosin fragment, residues 1-1108 (motor domain, six IQ motifs, coiled coil), C-terminal Flag tag, co-produced with light chains in baculovirus/Sf9, anti-FLAG purification; dimer; six CaM per heavy chain when co-produced with CaM only; with Calmodulin-1
T1 sequence (Q9NQX4 1-1108): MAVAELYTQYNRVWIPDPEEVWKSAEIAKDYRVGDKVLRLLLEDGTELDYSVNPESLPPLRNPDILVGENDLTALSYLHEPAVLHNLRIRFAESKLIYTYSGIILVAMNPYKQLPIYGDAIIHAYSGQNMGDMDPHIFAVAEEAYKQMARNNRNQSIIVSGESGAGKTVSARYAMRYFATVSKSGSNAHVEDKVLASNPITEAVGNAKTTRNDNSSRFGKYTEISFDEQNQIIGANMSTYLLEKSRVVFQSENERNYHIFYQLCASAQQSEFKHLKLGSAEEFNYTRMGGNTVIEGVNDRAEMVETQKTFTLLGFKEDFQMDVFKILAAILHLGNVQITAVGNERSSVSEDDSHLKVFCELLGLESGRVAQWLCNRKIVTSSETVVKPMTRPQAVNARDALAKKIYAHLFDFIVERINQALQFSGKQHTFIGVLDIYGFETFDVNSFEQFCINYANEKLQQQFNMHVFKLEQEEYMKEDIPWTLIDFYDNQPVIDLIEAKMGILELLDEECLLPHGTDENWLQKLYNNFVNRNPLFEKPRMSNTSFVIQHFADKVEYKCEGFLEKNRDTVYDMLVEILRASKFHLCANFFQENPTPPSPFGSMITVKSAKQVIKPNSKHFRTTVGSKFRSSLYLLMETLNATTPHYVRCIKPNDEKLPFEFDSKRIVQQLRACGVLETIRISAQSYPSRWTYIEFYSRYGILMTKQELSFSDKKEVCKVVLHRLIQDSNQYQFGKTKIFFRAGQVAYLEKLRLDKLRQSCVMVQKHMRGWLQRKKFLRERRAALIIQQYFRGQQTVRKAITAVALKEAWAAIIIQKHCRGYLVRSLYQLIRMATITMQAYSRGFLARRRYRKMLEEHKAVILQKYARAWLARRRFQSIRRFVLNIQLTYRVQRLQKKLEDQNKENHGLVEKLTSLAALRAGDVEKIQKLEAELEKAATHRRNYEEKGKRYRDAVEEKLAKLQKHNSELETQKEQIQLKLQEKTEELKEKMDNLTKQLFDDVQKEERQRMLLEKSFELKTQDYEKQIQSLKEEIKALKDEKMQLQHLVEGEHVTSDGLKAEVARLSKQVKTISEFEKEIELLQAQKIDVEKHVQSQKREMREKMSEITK

[1] = target: Myo5c–HMM heavy chain (human Myo5c, amino acids 1–1108, C-terminal Flag) (human) (UniProt Q9NQX4); assay: co-purification on anti-FLAG affinity resin, Coomassie gel and immunoblot; Myo5c–HMM-Flag co-produced with CaM alone in Sf9; lysate on anti-FLAG-M2 resin 2 h at 4°C, washed with 500 mM NaCl and 2 mM ATP, then 100 mM NaCl, eluted with FLAG peptide; blot with anti-Flag and anti-CaM; ratio from the gel
Chain of Myo5c–HMM heavy chain (human Myo5c, amino acids 1–1108, C-terminal Flag) (human) (Q9NQX4 1-1108): as above

[2] = target: Myo5c–HMM heavy chain (human Myo5c, amino acids 1–1108, C-terminal Flag) (human) (UniProt Q9NQX4); assay: co-purification on anti-FLAG affinity resin, Coomassie gel and immunoblot; Myo5c–HMM-Flag co-produced with CaM, RLC (Myl12b) and ELC (Myl6) in Sf9; lysate on anti-FLAG-M2 resin 2 h at 4°C, washed with 500 mM NaCl and 2 mM ATP, then 100 mM NaCl, eluted with FLAG peptide; blot with anti-Myl12b, anti-CaM, anti-Myl6; ratios from the Coomassie-stained gel
[3] = target: cofilaments of actin and Tpm1.8 (not stated (human β–actin or chicken α–skeletal actin prepared) | human) (UniProt P60709)
[4] = target: cofilaments of actin and Tpm3.1 (not stated (human β–actin or chicken α–skeletal actin prepared) | human) (UniProt P60709)
[5] = target: cofilaments of actin and Tpm1.6 (not stated (human β–actin or chicken α–skeletal actin prepared) | human) (UniProt P60709)
[6] = target: F–actin (bare actin filaments) (not stated (human β–actin or chicken α–skeletal actin prepared)) (UniProt P60709)
[7] = target: T2, Myo5c–HMM heavy chain (human Myo5c, amino acids 1–1108, C-terminal Flag) (human, UniProt Q9NQX4 1-1108); assay: co-purification on anti-FLAG affinity resin, Coomassie gel and immunoblot; Myo5c–HMM-Flag co-produced with CaM, RLC (Myl12b) and ELC (Myl6) in Sf9; lysate on anti-FLAG-M2 resin 2 h at 4°C, washed with 500 mM NaCl and 2 mM ATP, then 100 mM NaCl, eluted with FLAG peptide; blot with anti-Myl12b, anti-CaM, anti-Myl6; ratios from the Coomassie-stained gel; settings: partners not purified
T2 construct: human myosin 5c (Myo5c) heavy chain, amino acids 1-1108 (motor domain, neck with IQ motifs, part of the coiled coil), Uniprot-ID Q9NQX4; Cloned in pFastBac Dual under the polyhedrin promotor; also called heavy meromyosin fragment of the Myo5c heavy chain; source: baculovirus/Sf9, co-produced with light chains; not shown: Flag, C-terminal, kept
T2 sequence (Q9NQX4 1-1108): as above

Oc1c(Br)cc(Br)cc1-c1[nH]c(Br)c(Br)c1Br [PBP, 2,3,4–tribromo–5–(3,5–dibromo–2–hydroxyphenyl)–1H–pyrrole]
IC50 (Myo5c–HMM): 280 ± 60 nM

calmodulin (CaM) (from UniProt P0DP23 1-149) (natural protein)
stoichiometry N (CaM per heavy chain) [1]: 6 | stoichiometry N (light chain:heavy chain) [2]: 2

Myo5c–HMM (CaM): Myo5c–HMM heavy chain co-produced and co-purified with calmodulin (from UniProt Q9NQX4 1-1108; P0DP23 1-149) (complex)
K (app actin) of the steady-state actin-activated ATPase (NADH-coupled assay, 30°C, 0.15 µM myosin), actin–Tpm1.8 cofilaments [3]: 3.24 µM | K (app actin) of the steady-state actin-activated ATPase (NADH-coupled assay, 30°C, 0.15 µM myosin), actin–Tpm3.1 cofilaments [4]: 5.54 µM | K (app actin) of the steady-state actin-activated ATPase (NADH-coupled assay, 30°C, 0.15 µM myosin), actin–Tpm1.6 cofilaments [5]: 2.31 µM | K (app actin) of the steady-state actin-activated ATPase (NADH-coupled assay, 30°C, 0.15 µM myosin), bare actin [6]: 5.7 µM

B1: regulatory light chain Myl12b (natural protein, human (from the printed UniProt entry), UniProt O14950 1-172, looked up)
chain: MSSKKAKTKTTKKRPQRATSNVFAMFDQSQIQEFKEAFNMIDQNRDGFIDKEDLHDMLASLGKNPTDAYLDAMMNEAPGPINFTMFLTMFGEKLNGTDPEDVIRNAFACFDEEATGTIQEDYLRELLTTMGDRFTDEEVDELYREAPIDKKGNFNYIEFTRILKHGAKDKDD
notes: myosin regulatory light chain 12B (Myl12b), Uniprot-ID O14950 (a human entry); the vector was prepared as in Reindl et al., 2022; also called RLC; source: baculovirus/Sf9, co-produced with Myo5c–HMM, CaM and Myl6
stoichiometry N [7]: ~3 light chain:heavy chain

B2: essential light chain Myl6 (natural protein, human (from the printed UniProt entry), UniProt P60660 1-151, looked up)
chain: MCDFTEDQTAEFKEAFQLFDRTGDGKILYSQCGDVMRALGQNPTNAEVLKVLGNPKSDEMNVKVLDFEHFLPMLQTVAKNKDQGTYEDYVEGLRVFDKEGNGTVMGAEIRHVLVTLGEKMTEEEVEMLVAGHEDSNGCINYEAFVRHILSG
notes: myosin essential light chain Myl6, Uniprot-ID P60660 (a human entry); the vector was prepared as in Reindl et al., 2022; also called ELC; source: baculovirus/Sf9, co-produced with Myo5c–HMM, CaM and Myl12b
stoichiometry N [7]: ~1 light chain:heavy chain
